Measurements taken from patent US20180244725.

System: T1, R5 peptide
T1 sequence: SSKKSGSYSGSKGSKRRIL

Substance: JMJD6 (Auxenochlorella protothecoides)
- enzymatic modification of R5 (Hydroxylation): resulted in no modifications

Substance: JMJD6 (Nannochloropsos gaditana)
- enzymatic modification of R5 (Hydroxylation): resulted in no modifications

Substance: LIPT1
- enzymatic modification of R5 (Lipidation): resulted in no modifications

Substance: Protein Kinase A (PKA) (NEB P6000S)
- phosphorylation sites on R5 (LC-MS/MS): primary phosphorylation at Ser11, with very low levels of phosphorylation at Ser4, Ser7, and Ser1.6

Substance: THAOC_04424
- enzymatic modification of R5 (Hydroxylation): resulted in no modifications

Substance: THAOC_24272
- methylation of R5 (LC-MS, LC-MS/MS): the methylation occurs on all four lysine with no discernable preference or pattern

Substance: THAOC_27572
- enzymatic modification of R5 (Hydroxylation): resulted in no modifications

Substance: THAOC_37500
- methylation of R5 (LC-MS time course): A time course showing the incorporation of zero to 16 methyl groups into R5

Substance: Tyrosinase from mushrooms (Sigma T3824)
- oxidation and polymerization of R5 (absorbance at 350 nm, SDS-PAGE): A time course was generated showing the production of oxidized R5 (FIGS. 6B-6C) and the subsequent spontaneous formation of R5 polymers
